Laboratory results published in PMC5708649 (PLoS ONE, 2017).

Biological target: inactive E433A variant of full-length PgDPP III (Porphyromonas gingivalis W83, UniProt Q7MX92 1-886, E433A)
Experiment: ITC
Settings: both partners purified

Binder	binding result
VVYPW (also called VVYPW; pentapeptide tynorphin) [tynorphin]	binds
IVYPW	binds
